Reference: patent US20150344570A1 (published 2015)

T1: FcgRIIb (FcγRIIb) extracellular domain with C-terminal His tag (human, UniProt P31994 43-217)
T1 construct: extracellular domain; not shown: His tag attached to the C terminus
T1 sequence (looked up): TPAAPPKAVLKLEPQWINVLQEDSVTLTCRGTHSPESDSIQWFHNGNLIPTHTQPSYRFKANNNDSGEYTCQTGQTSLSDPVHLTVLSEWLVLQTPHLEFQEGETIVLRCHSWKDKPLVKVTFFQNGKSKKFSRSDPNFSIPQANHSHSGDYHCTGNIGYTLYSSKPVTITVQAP

T2: FcgRIIa R (FcγRIIa type R) extracellular domain with C-terminal His tag (human, UniProt P12318 34-217)
T2 construct: extracellular domain; also called FcγRIIa R; not shown: His tag attached to the C terminus
T2 sequence (looked up): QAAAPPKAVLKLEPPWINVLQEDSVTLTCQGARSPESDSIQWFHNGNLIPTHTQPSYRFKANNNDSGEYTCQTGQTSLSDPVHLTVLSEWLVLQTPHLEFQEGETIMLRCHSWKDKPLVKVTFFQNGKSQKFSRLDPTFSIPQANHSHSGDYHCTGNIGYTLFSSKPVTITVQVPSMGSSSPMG

T3: FcgRIIa H (FcγRIIa type H) extracellular domain with C-terminal His tag (human, UniProt P12318 34-217)
T3 construct: extracellular domain; also called FcγRIIa H; not shown: His tag attached to the C terminus
T3 sequence (looked up): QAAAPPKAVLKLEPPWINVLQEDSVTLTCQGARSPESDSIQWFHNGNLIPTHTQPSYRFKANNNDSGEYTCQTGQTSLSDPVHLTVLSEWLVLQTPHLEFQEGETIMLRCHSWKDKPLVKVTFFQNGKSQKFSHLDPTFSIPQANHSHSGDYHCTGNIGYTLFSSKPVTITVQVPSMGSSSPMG


Legend:
Assay in all cases: SPR (Biacore); KD of H240-Kn061/H240-Hl071/L73-k0 divided by KD of the variant
[1] = target: T1, FcgRIIb (FcγRIIb) extracellular domain …
Protocol: (§1) The antibodies were assessed for the binding to each FcgR. […] The resultant value was defined as relative KD, and used as an assessment indicator.
(§2) Analysis of interaction between objective antibody and the FcγR was carried out using Biacore T100 (GE Healthcare), Biacore T200, Biacore A100, and Biacore 4000. HBS-EP+ (GE Healthcare) was used as the running buffer, and the measurement temperature was set to 25° C. Chips produced by immobilizing the antigen peptide by the amine coupling method to a Series S sensor Chip CM5 (GE Healthcare), chips produced by allowing preliminarily biotinylated antigen peptides to interact with and immobilize onto a Series S Sensor Chip SA (certified) (GE Healthcare), chips produced by immobilizing Protein L (ACTIGEN, BioVision) to Series S Sencor Chip CM5 (GE Healthcare), or chips produced by immobilizing Protein A/G (Thermo Scientific) to Series S Sencor Chip CM5 (GE Healthcare) were used. Antibodies of interest were captured onto these chips, and allowed to interact to each FcγR diluted with running buffer.

[2] = target: T4, FcgRIIIa V (FcγRIIIa type V) extracellular domain with C-terminal His tag (human, UniProt P08637 17-208)
T4 construct: extracellular domain; also called FcγRIIIa V; not shown: His tag attached to the C terminus
T4 sequence (P08637 17-208 F176V limits assumed): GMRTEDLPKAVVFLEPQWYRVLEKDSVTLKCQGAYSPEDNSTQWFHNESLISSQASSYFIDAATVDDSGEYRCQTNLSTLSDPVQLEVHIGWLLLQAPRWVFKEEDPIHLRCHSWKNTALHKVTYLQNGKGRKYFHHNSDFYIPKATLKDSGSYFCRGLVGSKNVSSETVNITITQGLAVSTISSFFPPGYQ
Protocol: as §1, §2

[3] = target: T5, FcgRIIIa F (FcγRIIIa type F) extracellular domain with C-terminal His tag (human, UniProt P08637 17-208)
T5 construct: extracellular domain; also called FcγRIIIa F; 3aF; not shown: His tag attached to the C terminus
T5 sequence (P08637 17-208): as the sequence (P08637 17-208 F176V limits assumed) above, with V160F counted along it
Protocol: as §1, §2

[4] = target: T2, FcgRIIa R (FcγRIIa type R) …
Protocol: as §1, §2

[5] = target: T3, FcgRIIa H (FcγRIIa type H) …
Protocol: as §1, §2

Row | relative KD [1] [ratio] | relative KD [2] [ratio] | relative KD [3] [ratio] | relative KD [4] [ratio] | relative KD [5] [ratio] | Binder
1 | 1.4 | 2 | 1.8 | 1.7 | 1.6 | H240-Kn061/H240-Hl071/L73-k0 variant with A231E in H240-Kn061 (antibody, human IgG1, kappa, anti-epiregulin heterodimerized IgG1; also called H240-Kn061 A231E) heavy 1: QDQLVQSGAEVKKPGASVKVSCKASGFNIKDTYIQWVRQAPGQGLEWMGRIDPLRKQTKYREKFEGRVTITADTSTNTAYMELSSLRSEDTAVYYCVRSGREFDYWGQGTLVTVSSASTKGPSVFPLAPSSKSTSGGTAALGCLVKDYFPEPVTVSWNSGALTSGVHTFPAVLQSSGLYSLSSVVTVPSSSLGTQTYICNVNHKPSNTKVDKKVEPKSCDKTHTCPPCPEPEYYWGPSVFLFPPKPKDTLMISRTPEVTCVVVDVSDEDPEVKFNWYVDGVEVHNAKTKPREEQYNATYRVVSVLTVLHQDWLNGKEYKCKVSNKALPAPIEKTISKAKGQPREPQVCTLPPSRDELTKNQVSLWCLVKGFYPSDIAVEWESNGQPENNYKTTPPVLDSDGSFFLYSKLTVDKSRWQQGNVFSCSVMHEALHNHYTQKSLSLSP heavy 2: QDQLVQSGAEVKKPGASVKVSCKASGFNIKDTYIQWVRQAPGQGLEWMGRIDPLRKQTKYREKFEGRVTITADTSTNTAYMELSSLRSEDTAVYYCVRSGREFDYWGQGTLVTVSSASTKGPSVFPLAPSSKSTSGGTAALGCLVKDYFPEPVTVSWNSGALTSGVHTFPAVLQSSGLYSLSSVVTVPSSSLGTQTYICNVNHKPSNTKVDKKVEPKSCDKTHTCPPCPAPELLGGPSVFLFPPKPKDTLMISRTPEVTCVVVDVSHEDPEVKFNWYVDGVEVHNAKTKPREEQYNSTYRVVSVLTVLHQDWLNGKEYKCKVSNDALPMPIEETISKAKGQPREPQVYTLPPSRCELTKNQVSLSCAVKGFYPSDIAVEWESNGQPENNYKTTPPVLDSDGSFFLVSKLTVDKSRWQQGNVFSCSVMHEALHNHYTQKSLSLSP light: DIQMTQSPSSLSASVGDRVTITCRASQDIHKYIAWYQQKPGQAPRLLIQYTSTLQPGVPSRFSGSGSGTDYTFTISSLQPEDIATYYCLQYEQLRTFGGGTKVEIKRTVAAPSVFIFPPSDEQLKSGTASVVCLLNNFYPREAKVQWKVDNALQSGNSQESVTEQDSKDSTYSLSSTLTLSKADYEKHKVYACEVTHQGLSSPVTKSFNRGEC
2 | 1.4 | 1.7 | 1.5 | 1.5 | 1.5 | H240-Kn061/H240-Hl071/L73-k0 variant with A231Q in H240-Kn061 (antibody, human IgG1, kappa, anti-epiregulin heterodimerized IgG1; also called H240-Kn061 A231Q) heavy 1: QDQLVQSGAEVKKPGASVKVSCKASGFNIKDTYIQWVRQAPGQGLEWMGRIDPLRKQTKYREKFEGRVTITADTSTNTAYMELSSLRSEDTAVYYCVRSGREFDYWGQGTLVTVSSASTKGPSVFPLAPSSKSTSGGTAALGCLVKDYFPEPVTVSWNSGALTSGVHTFPAVLQSSGLYSLSSVVTVPSSSLGTQTYICNVNHKPSNTKVDKKVEPKSCDKTHTCPPCPQPEYYWGPSVFLFPPKPKDTLMISRTPEVTCVVVDVSDEDPEVKFNWYVDGVEVHNAKTKPREEQYNATYRVVSVLTVLHQDWLNGKEYKCKVSNKALPAPIEKTISKAKGQPREPQVCTLPPSRDELTKNQVSLWCLVKGFYPSDIAVEWESNGQPENNYKTTPPVLDSDGSFFLYSKLTVDKSRWQQGNVFSCSVMHEALHNHYTQKSLSLSP heavy 2: QDQLVQSGAEVKKPGASVKVSCKASGFNIKDTYIQWVRQAPGQGLEWMGRIDPLRKQTKYREKFEGRVTITADTSTNTAYMELSSLRSEDTAVYYCVRSGREFDYWGQGTLVTVSSASTKGPSVFPLAPSSKSTSGGTAALGCLVKDYFPEPVTVSWNSGALTSGVHTFPAVLQSSGLYSLSSVVTVPSSSLGTQTYICNVNHKPSNTKVDKKVEPKSCDKTHTCPPCPAPELLGGPSVFLFPPKPKDTLMISRTPEVTCVVVDVSHEDPEVKFNWYVDGVEVHNAKTKPREEQYNSTYRVVSVLTVLHQDWLNGKEYKCKVSNDALPMPIEETISKAKGQPREPQVYTLPPSRCELTKNQVSLSCAVKGFYPSDIAVEWESNGQPENNYKTTPPVLDSDGSFFLVSKLTVDKSRWQQGNVFSCSVMHEALHNHYTQKSLSLSP light: DIQMTQSPSSLSASVGDRVTITCRASQDIHKYIAWYQQKPGQAPRLLIQYTSTLQPGVPSRFSGSGSGTDYTFTISSLQPEDIATYYCLQYEQLRTFGGGTKVEIKRTVAAPSVFIFPPSDEQLKSGTASVVCLLNNFYPREAKVQWKVDNALQSGNSQESVTEQDSKDSTYSLSSTLTLSKADYEKHKVYACEVTHQGLSSPVTKSFNRGEC
3 | 1.6 | 1.5 | 1.3 | 1.6 | 1.6 | H240-Kn061/H240-Hl071/L73-k0 variant with A231V in H240-Kn061 (antibody, human IgG1, kappa, anti-epiregulin heterodimerized IgG1; also called H240-Kn061 A231V) heavy 1: QDQLVQSGAEVKKPGASVKVSCKASGFNIKDTYIQWVRQAPGQGLEWMGRIDPLRKQTKYREKFEGRVTITADTSTNTAYMELSSLRSEDTAVYYCVRSGREFDYWGQGTLVTVSSASTKGPSVFPLAPSSKSTSGGTAALGCLVKDYFPEPVTVSWNSGALTSGVHTFPAVLQSSGLYSLSSVVTVPSSSLGTQTYICNVNHKPSNTKVDKKVEPKSCDKTHTCPPCPVPEYYWGPSVFLFPPKPKDTLMISRTPEVTCVVVDVSDEDPEVKFNWYVDGVEVHNAKTKPREEQYNATYRVVSVLTVLHQDWLNGKEYKCKVSNKALPAPIEKTISKAKGQPREPQVCTLPPSRDELTKNQVSLWCLVKGFYPSDIAVEWESNGQPENNYKTTPPVLDSDGSFFLYSKLTVDKSRWQQGNVFSCSVMHEALHNHYTQKSLSLSP heavy 2: QDQLVQSGAEVKKPGASVKVSCKASGFNIKDTYIQWVRQAPGQGLEWMGRIDPLRKQTKYREKFEGRVTITADTSTNTAYMELSSLRSEDTAVYYCVRSGREFDYWGQGTLVTVSSASTKGPSVFPLAPSSKSTSGGTAALGCLVKDYFPEPVTVSWNSGALTSGVHTFPAVLQSSGLYSLSSVVTVPSSSLGTQTYICNVNHKPSNTKVDKKVEPKSCDKTHTCPPCPAPELLGGPSVFLFPPKPKDTLMISRTPEVTCVVVDVSHEDPEVKFNWYVDGVEVHNAKTKPREEQYNSTYRVVSVLTVLHQDWLNGKEYKCKVSNDALPMPIEETISKAKGQPREPQVYTLPPSRCELTKNQVSLSCAVKGFYPSDIAVEWESNGQPENNYKTTPPVLDSDGSFFLVSKLTVDKSRWQQGNVFSCSVMHEALHNHYTQKSLSLSP light: DIQMTQSPSSLSASVGDRVTITCRASQDIHKYIAWYQQKPGQAPRLLIQYTSTLQPGVPSRFSGSGSGTDYTFTISSLQPEDIATYYCLQYEQLRTFGGGTKVEIKRTVAAPSVFIFPPSDEQLKSGTASVVCLLNNFYPREAKVQWKVDNALQSGNSQESVTEQDSKDSTYSLSSTLTLSKADYEKHKVYACEVTHQGLSSPVTKSFNRGEC
